According to paper PMC3253524 (Biochemical Journal, 2011):

What was measured:
[1] = target: T1, GST–human PPARγ (full-length PPARγ–GST fusion protein) (human, UniProt P37231 1-505); assay: pull-down
T1 sequence (looked up): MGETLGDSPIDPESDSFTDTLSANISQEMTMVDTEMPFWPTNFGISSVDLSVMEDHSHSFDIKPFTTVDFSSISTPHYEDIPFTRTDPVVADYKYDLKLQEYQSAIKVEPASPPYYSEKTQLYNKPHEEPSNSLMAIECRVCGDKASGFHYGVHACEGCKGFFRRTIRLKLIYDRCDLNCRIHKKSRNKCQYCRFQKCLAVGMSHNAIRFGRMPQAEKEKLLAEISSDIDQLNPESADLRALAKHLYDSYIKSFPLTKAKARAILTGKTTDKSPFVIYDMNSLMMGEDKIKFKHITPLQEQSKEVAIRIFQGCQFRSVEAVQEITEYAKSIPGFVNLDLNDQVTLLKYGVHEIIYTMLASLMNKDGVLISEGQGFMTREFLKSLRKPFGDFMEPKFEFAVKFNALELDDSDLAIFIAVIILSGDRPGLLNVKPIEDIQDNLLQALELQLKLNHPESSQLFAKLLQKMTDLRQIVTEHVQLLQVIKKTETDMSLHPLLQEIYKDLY

[2] = target: T1, GST–human PPARγ (full-length PPARγ–GST …); assay: pull-down; remark: listed apart in the source

B1: SRC-1-S2, a truncated SRC-1 (steroid receptor co-activator-1) protein (amino acids 623–770) (domain or fragment, human, UniProt Q15788 623-770, looked up)
chain: DSKYSQTSHKLVQLLTTTAEQQLRHADIDTSCKDVLSCTGTSNSASANSSGGSCPSSHSSLTERHKILHRLLQEGSPSDITTLSVEPDKKDSASTSVSVTGQVQGNSSIKLELDASKKKESKDHQLLRYLLDKDEKDLRSTPNLSLDD
fold binding relative to the vehicle control, with 50 μM Pio [1]: 17 fold
fold binding relative to the vehicle control, with 50 μM FPP [2]: 6.1 fold
fold binding relative to the vehicle control, with 100 μM FPP [2]: 15 fold
